Test results: US20180155451A1 (published 2018)
Like-named read-outs stand apart in the source and are kept apart here.

Columns and labels:
Experiment in all cases: SPR (Biacore), antibody captured on chip, FcgR extracellular domain as analyte
FcgRIIa H = target: T1, FcgRIIa H (human, UniProt P12318 34-217)
T1 construct: extracellular domain; also called FcγRIIa H; FcγRIIa type H; not shown: His tag attached to the C terminus
T1 sequence (looked up): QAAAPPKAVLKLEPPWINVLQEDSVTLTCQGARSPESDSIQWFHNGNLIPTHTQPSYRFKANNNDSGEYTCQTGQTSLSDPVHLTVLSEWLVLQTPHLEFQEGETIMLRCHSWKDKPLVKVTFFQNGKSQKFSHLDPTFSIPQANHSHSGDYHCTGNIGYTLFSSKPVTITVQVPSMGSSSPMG

FcgRIIb = target: T2, FcgRIIb (human, UniProt P31994 43-217)
T2 construct: extracellular domain; Expressed in FreeStyle293 cells and purified; used as analyte in Biacore; also called FcγRIIb; CD32B; not shown: His tag attached to the C terminus
T2 sequence (looked up): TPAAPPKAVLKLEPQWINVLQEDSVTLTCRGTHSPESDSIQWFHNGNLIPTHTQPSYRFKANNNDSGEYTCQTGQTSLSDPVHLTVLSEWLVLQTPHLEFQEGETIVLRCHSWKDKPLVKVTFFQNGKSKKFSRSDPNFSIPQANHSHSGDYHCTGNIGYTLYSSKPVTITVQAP

FcgRIIIa V [1] = target: T3, FcgRIIIa V (human, UniProt P08637 17-208)
T3 construct: extracellular domain; also called FcγRIIIa V; not shown: His tag attached to the C terminus

FcgRIIa R = target: T4, FcgRIIa R (human, UniProt P12318 34-217)
T4 construct: extracellular domain; also called FcγRIIa R; FcγRIIa type R; not shown: His tag attached to the C terminus
T4 sequence (looked up): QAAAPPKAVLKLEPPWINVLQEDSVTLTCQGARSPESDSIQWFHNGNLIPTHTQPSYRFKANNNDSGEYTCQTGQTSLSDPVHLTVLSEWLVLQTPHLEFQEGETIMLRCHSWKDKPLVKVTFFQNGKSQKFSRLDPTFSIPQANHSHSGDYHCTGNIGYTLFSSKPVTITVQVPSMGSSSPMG

FcgRIa = target: T5, FcgRIa (human, UniProt P12314 16-292)
T5 construct: extracellular domain; Expressed in FreeStyle293 cells and purified; used as analyte in Biacore; also called FcγRIa; FcγRI; not shown: His tag attached to the C terminus

FcgRIIIa F = target: T6, FcgRIIIa F (human, UniProt P08637 17-208)
T6 construct: extracellular domain; also called FcγRIIIa F; not shown: His tag attached to the C terminus

FcgRIIIa V [2] = target: T3, FcgRIIIa V; remark: listed apart in the source

T3 sequence (P08637 17-208 F176V limits assumed): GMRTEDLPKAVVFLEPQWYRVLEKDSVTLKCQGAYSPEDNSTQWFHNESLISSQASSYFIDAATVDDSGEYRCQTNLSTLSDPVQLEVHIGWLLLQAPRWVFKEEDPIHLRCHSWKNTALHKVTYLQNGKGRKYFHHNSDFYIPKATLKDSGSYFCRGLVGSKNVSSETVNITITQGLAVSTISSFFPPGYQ
T6 sequence (P08637 17-208): as the sequence (P08637 17-208 F176V limits assumed) above, with V160F counted along it
T5 sequence (P12314 16-292): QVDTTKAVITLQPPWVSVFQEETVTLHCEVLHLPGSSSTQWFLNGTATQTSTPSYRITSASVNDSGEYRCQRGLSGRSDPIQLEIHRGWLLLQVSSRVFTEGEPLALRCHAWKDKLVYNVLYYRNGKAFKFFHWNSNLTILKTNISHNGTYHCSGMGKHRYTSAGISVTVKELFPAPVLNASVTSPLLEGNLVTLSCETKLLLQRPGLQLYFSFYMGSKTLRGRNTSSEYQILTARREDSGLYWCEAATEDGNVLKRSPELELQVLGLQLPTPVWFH

Kd (FcgRIIa H): 780 nM | Kd (FcgRIIb): 2600 nM | Kd (FcgRIIIa V [1]): 6.9 nM | Kd (FcgRIIa R): 490 nM | Kd (FcgRIa): 0.43 nM | Kd (FcgRIIIa F): 79 nM | Kd (FcgRIIIa V [2]): 6.9 nM
B1: H240-afucosyl_G1d/L73-k0 (antibody, human IgG1, kappa)
heavy: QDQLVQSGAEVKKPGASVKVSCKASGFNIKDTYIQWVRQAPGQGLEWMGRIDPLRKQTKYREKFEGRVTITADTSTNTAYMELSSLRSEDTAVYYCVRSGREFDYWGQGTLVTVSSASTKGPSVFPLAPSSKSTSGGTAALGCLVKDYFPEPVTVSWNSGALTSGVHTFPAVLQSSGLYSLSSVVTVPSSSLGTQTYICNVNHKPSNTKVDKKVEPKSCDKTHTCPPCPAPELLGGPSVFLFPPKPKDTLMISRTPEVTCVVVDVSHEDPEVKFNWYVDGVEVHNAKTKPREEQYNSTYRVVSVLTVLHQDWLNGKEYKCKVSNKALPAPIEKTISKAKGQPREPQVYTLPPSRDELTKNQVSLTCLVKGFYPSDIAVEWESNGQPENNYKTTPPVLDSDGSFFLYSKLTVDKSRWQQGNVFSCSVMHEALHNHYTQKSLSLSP
light: DIQMTQSPSSLSASVGDRVTITCRASQDIHKYIAWYQQKPGQAPRLLIQYTSTLQPGVPSRFSGSGSGTDYTFTISSLQPEDIATYYCLQYEQLRTFGGGTKVEIKRTVAAPSVFIFPPSDEQLKSGTASVVCLLNNFYPREAKVQWKVDNALQSGNSQESVTEQDSKDSTYSLSSTLTLSKADYEKHKVYACEVTHQGLSSPVTKSFNRGEC
modifications: fucose removed from the sugar chain (afucosylated); amino acid sequence same as H240-G1d
notes: Anti-EREG IgG1 obtained by afucosylating H240-G1d/L73-k0; also called afucosylated antibody
